Data: US20210332131A1 (TIGATX, published 2021)

T1: CD20 (UniProt P11836 1-297, limits assumed)
T1 construct: whole, on cells
T1 sequence (looked up): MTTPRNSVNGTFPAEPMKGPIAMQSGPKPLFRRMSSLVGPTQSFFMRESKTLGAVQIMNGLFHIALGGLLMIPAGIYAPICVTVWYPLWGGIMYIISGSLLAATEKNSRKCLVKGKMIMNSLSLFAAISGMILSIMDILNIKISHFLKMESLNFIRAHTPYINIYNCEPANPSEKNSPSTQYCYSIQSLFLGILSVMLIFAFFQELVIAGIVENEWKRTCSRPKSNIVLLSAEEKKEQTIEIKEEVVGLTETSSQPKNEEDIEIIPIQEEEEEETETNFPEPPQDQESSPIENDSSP


Legend:
[1] = biological target: T2, CD47 (human, UniProt Q08722 19-323); assay: flow cytometry on SKBR3 WT cells (CD20-/CD47+), detection anti-IgA PE, GeoMFI
T2 construct: whole, on cells; also called Cluster of Differentiation 47; human CD47
Protocol: (§1) After the pre-block the IgA antibodies were applied as described above. Samples were analyzed on a BD Canto II, and data has been analyzed using FlowJo (BD).

[2] = biological target: T1, CD20; assay: flow cytometry, bispecific supernatant on SKBR3-CD20 cells, without or after pre-block of CD47 with m9, detection anti-IgA PE, GeoMFI; SKBR3 WT (CD20-) panel as comparison
Protocol: as §1
Cells were fixed and measured by FACS.

[3] = biological target: T2, CD47; assay: flow cytometry on human erythrocytes (CD235a+), bispecific supernatant, detection anti-human IgA, % positive cells
Protocol: A Histopaque/ficoll isolation was performed to separate the erythrocytes from the PMN/PBMC. Plasma, PBMC, ficoll, histopaque and PMN have been discarded. The remaining pellet of erythrocytes were washed in PBS, spun for 5 minutes at 2400 rpm and pellet was resuspended in 5 mL PBS. […] Dilutions are done in FACS buffer (1% BSA in PBS). Incubated for 30 minutes at RT in the dark, excess unbound antibody was washed away with FACS buffer. 40 uL was added in FACS buffer diluted detection antibody (goat F(ab)′2 anti-human IgA-FITC (Southern Biotech; dilution 1:100), incubated for 30 minutes at RT in the dark, excess unbound antibody was washed away with FACS buffer. Samples were fixed by adding 1% PFA to pelleted cells. Measure on Canto II (BD), gating on CD235-positive events.

[4] = biological target: T2, CD47; assay: flow cytometry, bispecific supernatant on SKBR3 WT (CD20-/CD47+) and SKBR3-CD20 cells, without or after pre-block of CD47 with mIgG1 anti-CD47 PerCP-Cy5.5, detection anti-IgA PE, GeoMFI
Protocol: as §1
Cells were fixed and measured by FACS.

[5] = biological target: T2, CD47; assay: flow cytometry on SKBR3 WT cells (CD20-/CD47+), detection anti-IgA PE
Protocol: as §1

T2 sequence (Q08722 19-323): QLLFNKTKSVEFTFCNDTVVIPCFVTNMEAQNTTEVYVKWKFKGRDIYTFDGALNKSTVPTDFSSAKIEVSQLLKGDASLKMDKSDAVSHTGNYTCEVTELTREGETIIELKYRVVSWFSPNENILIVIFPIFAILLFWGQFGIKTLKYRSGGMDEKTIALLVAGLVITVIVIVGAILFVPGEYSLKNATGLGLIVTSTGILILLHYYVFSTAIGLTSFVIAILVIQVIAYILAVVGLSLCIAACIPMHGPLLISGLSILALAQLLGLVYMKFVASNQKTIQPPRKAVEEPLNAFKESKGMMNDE

| binding result [2] | Binder | also measured |
| --- | --- | --- |
| binds | DVD-IgA scFv_HC bispecific antibody #4 (Obi-scFv: 2.3D11_HC) (bispecific antibody, Tetravalent homodimer; Obinituzumab (CD20) scFv on the 2.3D11 heavy chain; Tested as raw HEK293F supernatant; also called bispecific #4) heavy: QVQLVQSGAEVKKPGSSVKVSCKASGYAFSYSWINWVRQAPGQGLEWMGRIFPGDGDTDYNGKFKGRVTITADKSTSTAYMELSSLRSEDTAVYYCARNVFDGYWLVYWGQGTLVTVSSGGGGSGGGGSGGGGSDIVMTQTPLSLPVTPGEPASISCRSSKSLLHSNGITYLYWYLQKPGQSPQLLIYQMSNLVSGVPDRFSGSGSGTDFTLKISRVEAEDVGVYYCAQNLELPYTFGGGTKVEIKSGGGGSQVQLQESGPGLVKPSGTLSLTCAVSGVSIRSINWWNWVRQPPGKGLEWIGEIYHSGSTNYNPSLKSRVTISVDKSKNQFSLKLNSVTAADTAVYYCARDGGIAVTDYYYYGLDVWGQGTTVTVSSASPTSPKVFPLSLDSTPQDGNVVVACLVQGFFPQEPLSVTWSESGQGVTARNFPPSQDASGDLYTTSSQLTLPATQCPDGKSVTCHVKHYTNPSQDVTVPCRVPPPPPCCHPRLSLHRPALEDLLLGSEANLTCTLTGLRDASGATFTWTPSSGKSAVQGPPERDLCGCYSVSSVLPGSAQPWNHGETFTCTAAHPELKTPLTATLSKSGNTFRPEVHLLPPPSEELALNELVTLTCLARGFSPKDVLVRWLQGSQELPREKYLTWASRQEPSQGTTTFAVTSILRVAAEDWKKGDTFSCMVGHEALPLAFTQKTIDRLAGK light: not shown | binding result [3]: binds |
| binds | DVD-IgA bispecific antibody #1 (5A3M5-Obi) (bispecific antibody, Tetravalent homodimer, outer domain CD47 (5A3M5), inner domain CD20 (Obinituzumab)) heavy: not shown light: DIQMTQSPSSLSASVGDRVTITCQASQDINKYLNWYQQKPGKAPKLLIYGASRLETGVPSRFSGSGSGTDFTFTISSLQPEDIATYYCQQKHPRYPRTFGQGTKVEIKSGGGGSDIVMTQTPLSLPVTPGEPASISCRSSKSLLHSNGITYLYWYLQKPGQSPQLLIYQMSNLVSGVPDRFSGSGSGTDFTLKISRVEAEDVGVYYCAQNLELPYTFGGGTKVEIKRTVAAPSVFIFPPSDEQLKSGTASVVCLLNNFYPREAKVQWKVDNALQSGNSQESVTEQDSKDSTYSLSSTLTLSKADYEKHKVYACEVTHQGLSSPVTKSFNRGEC | binding result [4]: no binding |
| binds | DVD-IgA scFv_LC bispecific antibody #6 (Obi-scFv: 2.3D11_LC) (bispecific antibody, Tetravalent homodimer; Obinituzumab (CD20) scFv on the 2.3D11 light chain; also called bispecific #6) heavy: QVQLQESGPGLVKPSGTLSLTCAVSGVSIRSINWWNWVRQPPGKGLEWIGEIYHSGSTNYNPSLKSRVTISVDKSKNQFSLKLNSVTAADTAVYYCARDGGIAVTDYYYYGLDVWGQGTTVTVSSASPTSPKVFPLSLDSTPQDGNVVVACLVQGFFPQEPLSVTWSESGQGVTARNFPPSQDASGDLYTTSSQLTLPATQCPDGKSVTCHVKHYTNPSQDVTVPCRVPPPPPCCHPRLSLHRPALEDLLLGSEANLTCTLTGLRDASGATFTWTPSSGKSAVQGPPERDLCGCYSVSSVLPGSAQPWNHGETFTCTAAHPELKTPLTATLSKSGNTFRPEVHLLPPPSEELALNELVTLTCLARGFSPKDVLVRWLQGSQELPREKYLTWASRQEPSQGTTTFAVTSILRVAAEDWKKGDTFSCMVGHEALPLAFTQKTIDRLAGK light: not shown |  |
| binds | DVD-IgA scFv_HC bispecific antibody #3 (5A3M5-scFv: Obi_HC) (bispecific antibody, Tetravalent homodimer; 5A3M5 (CD47) scFv on the Obinituzumab heavy chain; Tested as raw HEK293F supernatant) heavy: not shown light: DIVMTQTPLSLPVTPGEPASISCRSSKSLLHSNGITYLYWYLQKPGQSPQLLIYQMSNLVSGVPDRFSGSGSGTDFTLKISRVEAEDVGVYYCAQNLELPYTFGGGTKVEIKRTVAAPSVFIFPPSDEQLKSGTASVVCLLNNFYPREAKVQWKVDNALQSGNSQESVTEQDSKDSTYSLSSTLTLSKADYEKHKVYACEVTHQGLSSPVTKSFNRGEC |  |
| binds | DVD-IgA bispecific antibody #2 (Obi-2.3D11) (bispecific antibody, Tetravalent homodimer, outer domain CD20 (Obinituzumab), inner domain CD47 (2.3D11); also called DVD-IgA Obi-2.3D11) heavy: QVQLVQSGAEVKKPGSSVKVSCKASGYAFSYSWINWVRQAPGQGLEWMGRIFPGDGDTDYNGKFKGRVTITADKSTSTAYMELSSLRSEDTAVYYCARNVFDGYWLVYWGQGTLVTVSSSGGGGSQVQLQESGPGLVKPSGTLSLTCAVSGVSIRSINWWNWVRQPPGKGLEWIGEIYHSGSTNYNPSLKSRVTISVDKSKNQFSLKLNSVTAADTAVYYCARDGGIAVTDYYYYGLDVWGQGTTVTVSSASPTSPKVFPLSLDSTPQDGNVVVACLVQGFFPQEPLSVTWSESGQGVTARNFPPSQDASGDLYTTSSQLTLPATQCPDGKSVTCHVKHYTNPSQDVTVPCRVPPPPPCCHPRLSLHRPALEDLLLGSEANLTCTLTGLRDASGATFTWTPSSGKSAVQGPPERDLCGCYSVSSVLPGSAQPWNHGETFTCTAAHPELKTPLTATLSKSGNTFRPEVHLLPPPSEELALNELVTLTCLARGFSPKDVLVRWLQGSQELPREKYLTWASRQEPSQGTTTFAVTSILRVAAEDWKKGDTFSCMVGHEALPLAFTQKTIDRLAGK light: not shown |  |

Second part, the binder before the results:

| Binder | binding result [2] | also measured |
| --- | --- | --- |
| 2.3D11-IgA2 (antibody, V domains shown, May be the same as IgA3.0-2.3D11; also called bivalent monospecific antibody 2.3D11; anti-CD47 antibody 2.3D11) VH: QVQLQESGPGLVKPSGTLSLTCAVSGVSIRSINWWNWVRQPPGKGLEWIGEIYHSGSTNYNPSLKSRVTISVDKSKNQFSLKLNSVTAADTAVYYCARDGGIAVTDYYYYGLDVWGQGTTVTVSS VL: EIVLTQSPATLSLSPGERATLSCRASESVSSNLAWYQQKPGQAPRLLIYGAFNRATGIPARFSGSGSGTDFTLTISSLEPEDFAVYYCQQRSDWFTFGGGTKVEIK |  | binding result [1]: binds |
| DVD-IgA scFv_LC bispecific antibody #5 (5A3M5-scFv: Obi_LC) (bispecific antibody, Tetravalent homodimer; 5A3M5 (CD47) scFv on the Obinituzumab light chain) heavy: QVQLVQSGAEVKKPGSSVKVSCKASGYAFSYSWINWVRQAPGQGLEWMGRIFPGDGDTDYNGKFKGRVTITADKSTSTAYMELSSLRSEDTAVYYCARNVFDGYWLVYWGQGTLVTVSSASPTSPKVFPLSLDSTPQDGNVVVACLVQGFFPQEPLSVTWSESGQGVTARNFPPSQDASGDLYTTSSQLTLPATQCPDGKSVTCHVKHYTNPSQDVTVPCRVPPPPPCCHPRLSLHRPALEDLLLGSEANLTCTLTGLRDASGATFTWTPSSGKSAVQGPPERDLCGCYSVSSVLPGSAQPWNHGETFTCTAAHPELKTPLTATLSKSGNTFRPEVHLLPPPSEELALNELVTLTCLARGFSPKDVLVRWLQGSQELPREKYLTWASRQEPSQGTTTFAVTSILRVAAEDWKKGDTFSCMVGHEALPLAFTQKTIDRLAGK light: not shown | binds |  |
| Obi-IgA3.0 (antibody, V domains shown, Monospecific anti-CD20 IgA3.0 control; also called IgA3.0-Obi; anti-CD20 Obi antibody) VH: QVQLVQSGAEVKKPGSSVKVSCKASGYAFSYSWINWVRQAPGQGLEWMGRIFPGDGDTDYNGKFKGRVTITADKSTSTAYMELSSLRSEDTAVYYCARNVFDGYWLVYWGQGTLVTVSS VL: DIVMTQTPLSLPVTPGEPASISCRSSKSLLHSNGITYLYWYLQKPGQSPQLLIYQMSNLVSGVPDRFSGSGSGTDFTLKISRVEAEDVGVYYCAQNLELPYTFGGGTKVEIKR |  | binding result [5]: no binding (tested: 1 ug/mL (from paragraph 462, not on the sheet)) |
